Positions count from the first letter of the chain named. Names and notes keep the numbering of the source. Values belong to the binder of their own block, whether it stands above or below them.
Key:
[1] = biological target: T1, Human OSM (human, UniProt P13725 26-221); experiment: SPR (ProteOn XPR36 or Biacore T100), captured supernatant, OSM as analyte [continued]
T1 construct: Recombinant human OSM; also called hOSM; human Oncostatin M
T1 sequence: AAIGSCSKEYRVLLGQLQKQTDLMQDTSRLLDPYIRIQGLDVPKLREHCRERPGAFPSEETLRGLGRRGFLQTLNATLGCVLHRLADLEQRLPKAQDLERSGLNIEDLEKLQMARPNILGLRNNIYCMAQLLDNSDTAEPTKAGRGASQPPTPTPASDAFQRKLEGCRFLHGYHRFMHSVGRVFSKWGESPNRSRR
Experimental: (§1) The initial kinetic analyses for the CDRH3 screen were carried out on the ProteOn XPR36 (Biorad Laboratories) and certain supernatants were selected for more accurate kinetic analysis on the BiaCore T100.
(§2) For the ProteOn analysis, anti-human IgG (GE Healthcare/Biacore BR-1008-39) was coupled to a GLM chip (Biorad Laboratories 176-5012) by primary amine coupling. The CDRH3 variants were captured directly on to this surface and recombinant human OSM was passed over the captured antibody surface at 256, 64, 16, 4 and 1 nM, with a buffer injection alone (i.e. 0 nM) used to double reference the binding curves. Following the OSM binding event, the capture surfaces were regenerated: with 3M MgCl₂ the regeneration removed the previously captured antibody ready for another cycle of capture and binding analysis. The data was then fitted to the 1:1 model (with mass transport) inherent to the ProteOn analysis software. The run was carried out using HBS-EP (Biacore/GE-Healthcare BR-1006-69) and the analysis temperature was 25° C.
(§3) A similar method was used for analysis of constructs using the Biacore T100, anti-human IgG (GE Healthcare/Biacore BR-1008-39) was coupled to a CM5 chip (GE Healthcare/Biacore BR-1006-68) by primary amine coupling, antibodies were captured on this surface and recombinant human OSM was passed over the captured antibody surface at 256, 64, 16, 4 and 1 nM, with a buffer injection alone (i.e. 0 nM) used to double reference the binding curves. Regeneration was by using pulses of 3M 3M MgCl₂ or 100 mM phosphoric acid or using both reagents. The data was fitted to the 1:1 model inherent to the Biacore T100 analysis software. The run was carried out using HBS-EP (Biacore/GE-Healthcare BR-1006-69) and the analysis temperature was 25° C.

[2] = biological target: T1, Human OSM; experiment: SPR (ProteOn XPR36 or Biacore T100), captured supernatant, OSM as analyte
Experimental: as §1, §2, §3

[3] = biological target: T1, Human OSM; experiment: BIAcore kinetics, transfection supernatant
[4] = biological target: T2, Cynomolgus OSM (cynomolgus, UniProt A0A2K5VPC6 26-221); experiment: BIAcore kinetics, transfection supernatant
T2 construct: also called Cyno OSM; cynomolgus macaque OSM
T2 sequence: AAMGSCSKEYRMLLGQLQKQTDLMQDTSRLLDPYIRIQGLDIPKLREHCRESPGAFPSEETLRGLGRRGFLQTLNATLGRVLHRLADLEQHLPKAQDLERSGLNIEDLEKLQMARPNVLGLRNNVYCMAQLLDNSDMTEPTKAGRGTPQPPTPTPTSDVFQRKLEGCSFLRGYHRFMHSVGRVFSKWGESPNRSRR

B7: Pos 102 Gln (antibody, V domains shown)
VH: EVQLVESGGGLVQPGGSLRLSCAASGFTFSSYAMSWVRQAPGKGLEWVATISDGGSFTYYLDNVRGRFTISRDNAKNSLYLQMNSLRAEDTAVYYCARDVGHTTFWYFDQWGRGTLVTVSS
VL: DIVMTQSPDSLAVSLGERATINCRASKSVSAAGYNFMHWYQQKPGQPPKVLIYYASNLESGVPDRFSGSGSGTDFTLTISSLQAEDVAVYYCLHSREFPFTFGGGTKVEIKR
notes: also called CDRH3 V102>Q
Kd [2]: 0.337 nM

B8: Pos 102 Phe (antibody, V domains shown)
VH: B7 VH with Q110F
VL: B7 VL
notes: also called CDRH3 V102>F
Kd [2]: 0.425 nM

B9: Pos 100D Asp (antibody, V domains shown)
VH: B7 VH with F108D, Q110V
VL: B7 VL
notes: also called CDRH3 F100D>D
Kd [2]: 0.672 nM

B11: Pos 97 Phe (antibody, V domains shown)
VH: B7 VH with G101F, Q110V
VL: B7 VL
notes: also called CDRH3 G97>F
Kd [2]: 0.637 nM

B12: Pos 100D Gly (antibody, V domains shown)
VH: B7 VH with F108G, Q110V
VL: B7 VL
notes: also called CDRH3 F100D>G
Kd [2]: 0.661 nM

B13: Pos 97 Met (antibody, V domains shown)
VH: B7 VH with G101M, Q110V
VL: B7 VL
notes: also called CDRH3 G97>M
Kd [2]: 0.809 nM

B17: Pos 98 Gln (antibody, V domains shown)
VH: B7 VH with H102Q, Q110V
VL: B7 VL
notes: also called CDRH3 H98>Q
Kd [2]: 0.729 nM

B18: Pos 100B Glu (antibody, V domains shown)
VH: B7 VH with W106E, Q110V
VL: B7 VL
notes: also called CDRH3 W100B>E
Kd [2]: 0.491 nM

B19: Pos 102 Gly (antibody, V domains shown)
VH: B7 VH with Q110G
VL: B7 VL
notes: also called CDRH3 V102>G
Kd [2]: 0.406 nM

B20: Pos 99 Cys (antibody, V domains shown)
VH: B7 VH with T103C, Q110V
VL: B7 VL
notes: also called CDRH3 T99>C
Kd [2]: 0.708 nM

B22: Pos 101 Gly (antibody, V domains shown)
VH: B7 VH with D109G, Q110V
VL: B7 VL
notes: also called CDRH3 D101>G
Kd [2]: 0.71 nM

B23: Pos 98 Gly (antibody, V domains shown)
VH: B7 VH with H102G, Q110V
VL: B7 VL
notes: also called CDRH3 H98>G
Kd [2]: 1.11 nM

B24: Pos 102 Pro (antibody, V domains shown)
VH: B7 VH with Q110P
VL: B7 VL
notes: also called CDRH3 V102>P
Kd [2]: 0.411 nM

B25: Pos 96 His (antibody, V domains shown)
VH: B7 VH with V100H, Q110V
VL: B7 VL
notes: also called CDRH3 V96>H
Kd [2]: 0.48 nM

B27: Pos 98 Ala (antibody, V domains shown)
VH: B7 VH with H102A, Q110V
VL: B7 VL
notes: also called CDRH3 H98>A
Kd [2]: 0.659 nM

B28: Pos 100C Gly (antibody, V domains shown)
VH: B7 VH with Y107G, Q110V
VL: B7 VL
notes: also called CDRH3 Y100C>G
Kd [2]: 0.388 nM

B29: Pos 102 Leu (antibody, V domains shown)
VH: B7 VH with Q110L
VL: B7 VL
notes: also called CDRH3 V102>L
Kd [2]: 0.426 nM

B30: Pos 96 Phe (antibody, V domains shown)
VH: B7 VH with V100F, Q110V
VL: B7 VL
notes: also called CDRH3 V96>F
Kd [2]: 0.61 nM

B31: Pos 98 Phe (antibody, V domains shown)
VH: B7 VH with H102F, Q110V
VL: B7 VL
notes: also called CDRH3 H98>F
Kd [2]: 0.325 nM

B32: Humanised 10G8 H0 IGHV3_7 + L1 IGKV4_1 (antibody, V domains shown)
VH: B7 VH with A33W, Q110V
VL: DIVMTQSPDSLAVSLGERATINCRASKSVSAAGYNFMHWYQQKPGQPPKVLIYWASTRESGVPDRFSGSGSGTDFTLTISSLQAEDVAVYYCLHSREFPFTFGGGTKVEIK
notes: built from the stated CDR exchanges; residue limits derived by me
Kd [3]: 44.4 nM
koff [3]: 0.00163 s⁻¹
kon [3]: 36800 M⁻¹ s⁻¹
Kd [4]: 34.9 nM
koff [4]: 0.00177 s⁻¹
kon [4]: 50700 M⁻¹ s⁻¹

B33: Humanised 10G8 H0 + L1 IGKV1_5 (antibody, V domains shown)
VH: B7 VH with S31N, Q110V
VL: B32 VL with W54K, T57S, R58L
notes: built from the stated exchange of CDRL2; residue limits derived by me; Human gamma 1/kappa constant regions
Kd [3]: 9.33 nM
koff [3]: 0.00064 s⁻¹
kon [3]: 68700 M⁻¹ s⁻¹
Kd [4]: 8.26 nM
koff [4]: 0.000557 s⁻¹
kon [4]: 67500 M⁻¹ s⁻¹

Now from value to binder:

Kd [1]: 0.632 nM
B1: Pos 95 Thr (antibody, V domains shown)
VH: B7 VH with D99T, Q110V
VL: B7 VL
notes: also called CDRH3 D95>T

Kd [2]: 0.365 nM
B2: Pos 100C Phe (antibody, V domains shown)
VH: B7 VH with Y107F, Q110V
VL: B7 VL
notes: also called CDRH3 Y100C>F

Kd [2]: 0.869 nM
B3: Pos 100D Ala (antibody, V domains shown)
VH: B7 VH with F108A, Q110V
VL: B7 VL
notes: also called CDRH3 F100D>A

Kd [2]: 0.671 nM
B4: Pos 96 Lys (antibody, V domains shown)
VH: B7 VH with V100K, Q110V
VL: B7 VL
notes: also called CDRH3 V96>K

Kd [2]: 0.338 nM
B5: Pos 102 Ala (antibody, V domains shown)
VH: B7 VH with Q110A
VL: B7 VL
notes: also called CDRH3 V102>A

Kd [3]: 9.27 nM
koff [3]: 0.00066 s⁻¹
kon [3]: 71100 M⁻¹ s⁻¹
Kd [4]: 8.89 nM
koff [4]: 0.000593 s⁻¹
kon [4]: 66700 M⁻¹ s⁻¹
B6: Humanised 10G8 H0 IGHV3_23 + L1 IGKV1_5 (antibody, V domains shown)
VH: B7 VH with Q110V
VL: B32 VL with W54K, T57S, R58L
notes: built from the stated exchange of CDRL2; residue limits derived by me

Kd [2]: 0.426 nM
B10: Pos 101 Glu (antibody, V domains shown)
VH: B7 VH with D109E, Q110V
VL: B7 VL
notes: also called CDRH3 D101>E

Kd [2]: 0.486 nM
B14: Pos 97 Ala (antibody, V domains shown)
VH: B7 VH with G101A, Q110V
VL: B7 VL
notes: also called CDRH3 G97>A

Kd [2]: 0.651 nM
B15: Pos 97 Cys (antibody, V domains shown)
VH: B7 VH with G101C, Q110V
VL: B7 VL
notes: also called CDRH3 G97>C

Kd [2]: 0.482 nM
B16: Pos 100C Glu (antibody, V domains shown)
VH: B7 VH with Y107E, Q110V
VL: B7 VL
notes: also called CDRH3 Y100C>E

Kd [2]: 0.688 nM
B21: Pos 100D Glu (antibody, V domains shown)
VH: B7 VH with F108E, Q110V
VL: B7 VL
notes: also called CDRH3 F100D>E

Kd [2]: 0.541 nM
B26: Pos 99 Ala (antibody, V domains shown)
VH: B7 VH with T103A, Q110V
VL: B7 VL
notes: also called CDRH3 T99>A

Kd [3]: 10.6 nM
koff [3]: 0.000967 s⁻¹
kon [3]: 91000 M⁻¹ s⁻¹
Kd [4]: 24.2 nM
koff [4]: 0.815 s⁻¹
kon [4]: 3.37e+07 M⁻¹ s⁻¹
B34: Humanised 10G8 H0 IGHV3_7 + L1 (antibody, V domains shown)
VH: B7 VH with A33W, Q110V
VL: B32 VL with W54Y, T57N, R58L
notes: built from the statement that the germline CDRH1 was exchanged for the mouse CDRH1 in H0; Human gamma 1/kappa constant regions

— patent US20130251724A1 (GlaxoSmithKline, published 2013)
